Laboratory results from the RNAGym collection of RNA variant scans (doi:10.1073/pnas.2313332121).
Variants at the floor of the assay were thinned out.

B1: TPR 5TU (parent)
chain: GGAUCUUCUCGAUCUAACAAAAAAGACAAAUCUGCCACAAAGCUUGAGAGCAUCUUCGGAUGCAGAGGCGGCAGCCUUCGGUGGCGCGAUAGCGCCAACGUUCUCAACUAUGACACGCAAAACGCGUGCUCCGUUGAAUGGAGUUUAUCAUG

Variants of: B1
Assay: polymerase ribozyme fitness, log enrichment relative to wild type (log ratio); higher = more active; in vitro selection for triplet polymerase activity
Outline: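 Only genotypes with ≥10 input reads and ≥1 read per output were kept after Illumina sequencing of input and output libraries. These libraries were PCR-built, transcribed mutants of each subunit of a heterodimeric triplet polymerase ribozyme, each put through one triplicate in vitro selection round with frozen incubation at −7 °C, gel excision of extended constructs, streptavidin-bead capture and RT-PCR. Fitness is a logarithmic ratio of genotype enrichment to wild-type enrichment, from inverse-variance-weighted replicate averages, with the logarithm in base 2.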
In the case of A28G C36U C87A A119U G133A, the “polymerase ribozyme fitness (log ratio)” value is reported as ≤ -4.2.
For A26U U55G U56A C87U C96U, the “polymerase ribozyme fitness (log ratio)” value was -3.35.
With A28U C57G the “polymerase ribozyme fitness (log ratio)” value was -3.84.
In the case of A26U C63G G80C C85G U109G A122U, the “polymerase ribozyme fitness (log ratio)” value is reported as ≤ -4.2.
For C27U A60G C93A C125G G136A, the “polymerase ribozyme fitness (log ratio)” value was -2.85.
In the case of A28U C36A A47G G59A C85A C129U U145A, the “polymerase ribozyme fitness (log ratio)” value is reported as ≤ -4.2.
For C27G A49G A66C, the “polymerase ribozyme fitness (log ratio)” value was ≤ -4.2.
For A28U G92C A113U, the “polymerase ribozyme fitness (log ratio)” value was ≤ -4.2.
With A28G G92U C93A the “polymerase ribozyme fitness (log ratio)” value was ≤ -4.2.
For A28U G94A, the “polymerase ribozyme fitness (log ratio)” value was ≤ -4.2.
For A26U G50C C105A U109G C129U, the “polymerase ribozyme fitness (log ratio)” value was ≤ -4.2.
For A29G C54U G59A C76U U82C G88C C95G C96G, the “polymerase ribozyme fitness (log ratio)” value was ≤ -4.2.
With A26U U44A A97U the “polymerase ribozyme fitness (log ratio)” value was ≤ -4.2.
With A28U G70C A91G G133C the “polymerase ribozyme fitness (log ratio)” value was ≤ -4.2.
With C27G U53A U55A A91G C103G A137U the “polymerase ribozyme fitness (log ratio)” value was ≤ -4.2.
In the case of A26U G59C U61A C75G A138C, the “polymerase ribozyme fitness (log ratio)” value is reported as ≤ -4.2.
With A29G A98G the “polymerase ribozyme fitness (log ratio)” value was ≤ -4.2.
With C27U C96A C105G the “polymerase ribozyme fitness (log ratio)” value was -2.96.
For C27A G62A C87G A91C, the “polymerase ribozyme fitness (log ratio)” value was ≤ -4.2.
In the case of C27U G70C A138G, the “polymerase ribozyme fitness (log ratio)” value is reported as ≤ -4.2.
In the case of C27U A29C U44A U55A C95G G117U, the “polymerase ribozyme fitness (log ratio)” value is reported as ≤ -4.2.
For C27A A107G, the “polymerase ribozyme fitness (log ratio)” value was ≤ -4.2.
In the case of A26U C85U U146G, the “polymerase ribozyme fitness (log ratio)” value is reported as -1.93.
In the case of A29U C57A U61A A121U, the “polymerase ribozyme fitness (log ratio)” value is reported as ≤ -4.2.
For A28U G50C, the “polymerase ribozyme fitness (log ratio)” value was ≤ -4.2.
With A29U A30G C51U A89G C149A the “polymerase ribozyme fitness (log ratio)” value was ≤ -4.2.
For A29C A30C G62C C125G A137G A142U, the “polymerase ribozyme fitness (log ratio)” value was -4.11.
For A29U G59A C79G G80U G84U G124U, the “polymerase ribozyme fitness (log ratio)” value was ≤ -4.2.
For C27U U145G, the “polymerase ribozyme fitness (log ratio)” value was -1.39.
With A29U C95A A106G U134A the “polymerase ribozyme fitness (log ratio)” value was ≤ -4.2.
In the case of A28U C96A A121U U148C, the “polymerase ribozyme fitness (log ratio)” value is reported as ≤ -4.2.
With A29G U78C the “polymerase ribozyme fitness (log ratio)” value was ≤ -4.2.
With C27U U55G U61A C87G the “polymerase ribozyme fitness (log ratio)” value was ≤ -4.2.
For A29C A52G U61A A122U G141U, the “polymerase ribozyme fitness (log ratio)” value was ≤ -4.2.
With A28C G50A A97U G124A A138C the “polymerase ribozyme fitness (log ratio)” value was ≤ -4.2.
In the case of A29C C76A A91U A110G, the “polymerase ribozyme fitness (log ratio)” value is reported as ≤ -4.2.
With A29G C54A the “polymerase ribozyme fitness (log ratio)” value was -3.78.
In the case of A26U G88U C118G G143C, the “polymerase ribozyme fitness (log ratio)” value is reported as ≤ -4.2.
For A29C U55A, the “polymerase ribozyme fitness (log ratio)” value was -3.74.
With C27A C32U C95G A115C A122U C129A C131A the “polymerase ribozyme fitness (log ratio)” value was ≤ -4.2.
In the case of A29G C85A C114A A121G U134C, the “polymerase ribozyme fitness (log ratio)” value is reported as ≤ -4.2.
With C27G U78A G83U A91U G94C U135G G136C the “polymerase ribozyme fitness (log ratio)” value was -4.03.
With A28C A37G A47G A66C G86A A107U U135C the “polymerase ribozyme fitness (log ratio)” value was ≤ -4.2.
With A28U G50A U77C C85A C96G C105G G141A U144C the “polymerase ribozyme fitness (log ratio)” value was ≤ -4.2.
With C27U A30C C87G G128A C131A U134C G141U the “polymerase ribozyme fitness (log ratio)” value was -4.13.
With C27A C43G G92C U101C U127G U146A the “polymerase ribozyme fitness (log ratio)” value was ≤ -4.2.
With C27U U31C A52G U134C the “polymerase ribozyme fitness (log ratio)” value was -0.377.
With C27U A37C G50U C95A the “polymerase ribozyme fitness (log ratio)” value was -2.6.
With A28U G48C C75U U90G G117A C129G the “polymerase ribozyme fitness (log ratio)” value was ≤ -4.2.
For A28G C76A A107G G141U U148C, the “polymerase ribozyme fitness (log ratio)” value was ≤ -4.2.
With C27U A52G U53A C118G the “polymerase ribozyme fitness (log ratio)” value was -2.63.
For A28U C38A C63U G83A C103A, the “polymerase ribozyme fitness (log ratio)” value was ≤ -4.2.
For A26U C116U G141A, the “polymerase ribozyme fitness (log ratio)” value was -1.75.
In the case of A28C G67U U144C U151C, the “polymerase ribozyme fitness (log ratio)” value is reported as ≤ -4.2.
In the case of A29U G58A C85G A138C, the “polymerase ribozyme fitness (log ratio)” value is reported as ≤ -4.2.
With A28U G86A the “polymerase ribozyme fitness (log ratio)” value was -4.08.
In the case of A28C A40C G48U G50C C95U G117C A119U C123U, the “polymerase ribozyme fitness (log ratio)” value is reported as ≤ -4.2.
For A28U C38U G59U A60G G94A C95U C103U, the “polymerase ribozyme fitness (log ratio)” value was ≤ -4.2.
With A29U A37C U55G U135C the “polymerase ribozyme fitness (log ratio)” value was ≤ -4.2.
With C27G A29G A41C G67A G74A the “polymerase ribozyme fitness (log ratio)” value was ≤ -4.2.
For C27G A40C A66G C79U A91C, the “polymerase ribozyme fitness (log ratio)” value was -4.03.
For A28U G88C A91U C118A, the “polymerase ribozyme fitness (log ratio)” value was ≤ -4.2.
For A28U A49C U56A C95A C96U C108U, the “polymerase ribozyme fitness (log ratio)” value was ≤ -4.2.
For C27A G50C G74C U77C U104A, the “polymerase ribozyme fitness (log ratio)” value was ≤ -4.2.
For A26U G80A, the “polymerase ribozyme fitness (log ratio)” value was -2.3.
In the case of A28C A30U, the “polymerase ribozyme fitness (log ratio)” value is reported as -3.88.
With A28U A41U C93U U144C the “polymerase ribozyme fitness (log ratio)” value was -4.14.
In the case of C27U C54G C87U G92A C118A U144G, the “polymerase ribozyme fitness (log ratio)” value is reported as -3.12.
For C27G G50A G58A G83U, the “polymerase ribozyme fitness (log ratio)” value was ≤ -4.2.
For A26U G42C C72A C93A C116U, the “polymerase ribozyme fitness (log ratio)” value was ≤ -4.2.
In the case of C27G C32A C93U C96U, the “polymerase ribozyme fitness (log ratio)” value is reported as -4.06.
In the case of C27G C95U, the “polymerase ribozyme fitness (log ratio)” value is reported as -3.51.
With C27G A49C C51G G84U A98G A110G the “polymerase ribozyme fitness (log ratio)” value was ≤ -4.2.
With A28U U45A U78G G81C C116G G136U the “polymerase ribozyme fitness (log ratio)” value was ≤ -4.2.
In the case of A29U A52G C76G G84A C116G C118A A137G G141A C149U G152C, the “polymerase ribozyme fitness (log ratio)” value is reported as ≤ -4.2.
In the case of A29G A52C G74A G92U C95G, the “polymerase ribozyme fitness (log ratio)” value is reported as ≤ -4.2.
For C27G U61A C93U C95U A97U G133U, the “polymerase ribozyme fitness (log ratio)” value was ≤ -4.2.
For C27G A41U C87U A150C, the “polymerase ribozyme fitness (log ratio)” value was -3.92.
With A28C C87A C108G U146C the “polymerase ribozyme fitness (log ratio)” value was ≤ -4.2.
For A29C U55A U77G U101G U146A U148G, the “polymerase ribozyme fitness (log ratio)” value was ≤ -4.2.
With C27A G34A G50A A64U U78A G94U A106U G126C U148G the “polymerase ribozyme fitness (log ratio)” value was ≤ -4.2.
For A28U C35U C87G C103U A121G A122G, the “polymerase ribozyme fitness (log ratio)” value was ≤ -4.2.
With A29C A49U A150C the “polymerase ribozyme fitness (log ratio)” value was ≤ -4.2.
In the case of C27A U44A U55A A66G C87U C95G A110G C114U U144A, the “polymerase ribozyme fitness (log ratio)” value is reported as ≤ -4.2.
